# Measured values: patent publication US20070099830
# B1: human Sirt4 with a C-terminal FLAG (protein)
# chain: IGLFVPASPPLDPEKVKELQRFITLSKRLLVMTGAGISTESGIPDYRSEKVGLYARTDRRPIQHGDFVRSAPIRQRYWARNFVGWPQFSSHQPNPAHWALSTWEKLGKLYWLVTQNVDALHTKAGSRRLTELHGCMDRVLCLDCGEQTPRGVLQERFQVLNPTWSAEAHGLAPDGDVFLSEEQVRSFQVPTCVQCGGHLKPDVVFFGDTVNPDKVDFVHKRVKEADSLLVVGSSLQVYSGYRFILTAWEKKLPIAILNIGPTRSDDLACLKLNSRCGELLPLIDPC
# Experiments:
# [1] = target: bovine recombinant glutamate dehydrogenase, P00366
# Sequence of bovine recombinant glutamate dehydrogenase, P00366 (P00366 58-558): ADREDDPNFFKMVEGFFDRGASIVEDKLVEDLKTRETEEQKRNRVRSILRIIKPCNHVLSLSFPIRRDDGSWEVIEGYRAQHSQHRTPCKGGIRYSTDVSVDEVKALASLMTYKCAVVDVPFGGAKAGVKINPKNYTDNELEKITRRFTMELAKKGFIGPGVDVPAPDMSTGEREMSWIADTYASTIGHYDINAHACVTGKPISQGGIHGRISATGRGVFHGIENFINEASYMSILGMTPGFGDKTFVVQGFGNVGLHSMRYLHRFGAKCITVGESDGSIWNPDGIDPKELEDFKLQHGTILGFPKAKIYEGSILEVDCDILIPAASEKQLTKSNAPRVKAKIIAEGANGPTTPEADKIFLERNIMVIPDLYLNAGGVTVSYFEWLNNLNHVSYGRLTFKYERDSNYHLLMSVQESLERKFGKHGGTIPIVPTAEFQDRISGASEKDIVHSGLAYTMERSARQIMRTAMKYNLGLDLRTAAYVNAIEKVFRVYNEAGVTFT
protein,measurement,setting,value
B1,"glutamate dehydrogenase activity (disappearance of NADH, A340) after one hour with Sirt4 and NAD",[1],"Sirt4, but not the buffer control, significantly reduced the enzymatic activity of glutamate dehydrogenase"
same,mass spectroscopy of histone 2A after incubation with Sirt4 and NAD,histone 2A protein,Sirt4 transferred an approximately 500 Dalton moiety to Histone 2A
